± gives the standard deviation.
Assay: protein stability index of a GFP-peptide fusion (GPS, HEK-293T) (PSI 1-6); higher = more stable
Conditions: c terminus: a fixed tail appended
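Note: 24-mer peptide tiles fused after GFP, lentivirally expressed, FACS-sorted into six equal bins by GFP/DsRed ratio, decoded by Illumina sequencing, PSI is the read-weighted mean bin number.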

| Sequence | protein stability index (treatment: DMSO) | protein stability index (treatment: MLN4924 1 uM, 8 h) |
| --- | --- | --- |
| SIALRNISLAKGPPGPKGDQGDEG [SCARA5] | 4.68 ± 0.09 | 4.86 ± 0.2 |
| EESRISVPVHSFASLNIKTTVPEV [PRPH] | 4.05 ± 0.35 | 3.98 ± 0.39 |
| IDVSNPQTVGVGRGRFTTYEIRVK [SNX3] | 2.56 ± 0.25 | 2.69 ± 0.35 |
| ATYCVRTFALYKNGSSEKREVRQF [PTPRD] | 2.44 ± 0.4 | 2.35 ± 0.39 |
| KLERLKQQNEDLRRMAESLRIPEG [FUT8] | 3.87 ± 0.28 | 4 ± 0.3 |
| MRKGNTMQQFLQKALEILRKDFSE [FAM50A] | 3.09 ± 0.59 | 2.89 ± 0.46 |
| MLTLPFDESVVMPESQMCRKFSRE [NEUROD6] | 3.65 ± 0.15 | 3.77 ± 0.15 |
| PYMSIQPAEDPDDYDDGFSMKHTA [SMARCE1] | 4.88 ± 0.12 | 4.78 ± 0.21 |
| IRVVGRGAFGIVHLCLRKADQKLV [NEK8] | 3.02 ± 0.59 | 2.74 ± 0.81 |
| PAWYVAACRANVKSGAIMSALSDT [PPFIA4] | 2.58 ± 0.26 | 2.25 ± 0.39 |
| SKNEVGIFTTPNFDETSSATTIST [KMT2E] | 4.76 ± 0.22 | 4.79 ± 0.17 |
| SRREIRKIMGVEEEDDDDDDDDNL [ANKRD40] | 5.44 ± 0.12 | 5.53 ± 0.16 |
| MKSCKNLKGGLQEVAEQLELERIG [CNOT7] | 4.39 ± 0.14 | 4.47 ± 0.18 |
| MRSPQNLHSQEDDDSSSESGSGNG [NOL4L] | 5.64 ± 0.21 | 5.51 ± 0.16 |
| GILRARRGEGIQAPSFSSYLYFLF [SOAT2] | 2.29 ± 0.31 | 2.11 ± 0.28 |
| QCWKSLFIDTYSDVGRYIDHYAAI [FBXO3] | 2.65 ± 0.48 | 2.8 ± 0.72 |
| SFHSSGEKQKQPRWREGTKDSHDP [PBXIP1] | 5.08 ± 0.17 | 5.19 ± 0.24 |
| DQLFMQEKARQLLGRLKPSHTSRT [MYBL2] | 3.29 ± 0.27 | 3.76 ± 0.43 |
| LECVKFASHCLMNHPDLAKDLTEY [PDS5B] | 2.62 ± 0.17 | 2.77 ± 0.78 |
| EVDPVRRAVRDRNLLRDDRVLQNL [CCND2] | 4.1 ± 0.2 | 4.01 ± 0.27 |
| NFSKKIQQIHVVSQFKILVSLLEN [VPS39] | 2.64 ± 0.39 | 2.81 ± 0.66 |
| QLIEEGYVGEPLVCEVQVHGGSLL [GFOD1] | 2.44 ± 0.15 | 2.46 ± 0.39 |
| CTHCSKSFRQRAGLIMHQVTHFRG [ZNF449] | 2.46 ± 0.53 | 3.02 ± 0.52 |

| Sequence | protein stability index (treatment: DMSO) | protein stability index (treatment: MLN4924 1 uM, 8 h) |
| --- | --- | --- |
| QWLVSQLSAASPDTGHDSDKSDQS [TRAF3IP2] | 4.66 ± 0.16 | 4.73 ± 0.47 |
| PDDVDYATNPHVKPPYSYATLICM [FOXJ1] | 2.22 ± 0.28 | 2.2 ± 0.28 |
| QLEQPEKMPVLKAEASHYNSDLNN [RHOBTB3] | 4.83 ± 0.19 | 4.94 ± 0.15 |
| AKECMLQEENKSLREENKALREEN [CBY2] | 5.55 ± 0.22 | 5.51 ± 0.2 |
| APHHHHHHSHSGPEISRIIVDPTT [PLK2] | 4.22 ± 0.12 | 4.12 ± 0.22 |
| VTAGCGFGKDFRKGLLKKGACYGD [PPTC7] | 2.79 ± 0.56 | 2.65 ± 0.11 |
| NRKSILSRHLNSQVKKTTTRWCHI [PHTF1] | 2.57 ± 0.55 | 2.57 ± 0.39 |
| QGTGYIPTEQVNELVALIPHSDQR [TMEM106C] | 4.73 ± 0.18 | 4.67 ± 0.18 |
| EICLWGRHIFMGYLESETETTEAI [ACSBG2] | 2.55 ± 0.072 | 3.05 ± 0.29 |
| ALGNEGDTFHQDNQPSGLIRTYLG [RHOBTB3] | 3.48 ± 0.33 | 3.85 ± 0.37 |
| VNDHLLNFVRERTLDKRWRVRKEA [PDS5B] | 2.74 ± 0.44 | 3.08 ± 0.35 |
| NFSIVPYEKKFDTFIPLEPLPQIP [SPATS1] | 3.04 ± 0.33 | 2.97 ± 0.34 |
| ADFESEDEGEEFDDWEDDYDYPEE [EID1] | 4.62 ± 0.29 | 4.87 ± 0.35 |
| FLLKFLLVGDRDVGKSEILESLQD [RAB40A] | 2.65 ± 0.43 | 2.9 ± 0.56 |
| ERVEALGQFVMKTRRTLKGHGNKV [GNB5] | 3.09 ± 0.7 | 3.52 ± 0.14 |
| QSNYDTKGKTAVDTVFRFDPRYNK [KLHL13] | 3.49 ± 0.23 | 4.17 ± 0.22 |
| QLPISSENDSTPTVSTSEVTSQQE [TAF7L] | 5.53 ± 0.28 | 5.5 ± 0.13 |
| ESQKANQCAVLIYTSGTTGIPKGV [ACSBG2] | 2.13 ± 0.26 | 2.52 ± 0.41 |
| VKCNGALINTSDTVQHGAVYSLEP [SDE2] | 3.57 ± 0.5 | 3.75 ± 0.33 |
| QGLIEDCQLALQQKRETLSPLCLI [KCTD13] | 2.47 ± 0.17 | 2.64 ± 0.25 |
| SIQSLTLEWNSLGTWDDAFATFCG [LRRC45] | 2.25 ± 0.25 | 2.08 ± 0.53 |
| ADFEQKMLDSALRFQAMEETHLRH [FCHO1] | 3.88 ± 0.29 | 3.93 ± 0.24 |
| EDWDSALFAELGYFTDTDELQLEA [ATF6] | 4.3 ± 0.21 | 4.65 ± 0.23 |

| Sequence | protein stability index (treatment: DMSO) | protein stability index (treatment: MLN4924 1 uM, 8 h) |
| --- | --- | --- |
| GKYNAMVLELLGPSLEDLFDLCDR [CSNK1G3] | 2.92 ± 0.28 | 2.18 ± 0.28 |
| QGASWELQSLRPHDEDIKTTNVKS [ZNF396] | 5.14 ± 0.097 | 5.19 ± 0.21 |
| KIMEAESQKATRECEKSALTPGFS [FAN1] | 4.86 ± 0.29 | 4.84 ± 0.14 |
| LASYLDRVRSLETENRRLESKIRE [KRT18] | 3.58 ± 0.34 | 3.7 ± 0.11 |
| SATSKLIHPDEDISLEERRAQLPK [ZNF207] | 4.9 ± 0.28 | 5.08 ± 0.2 |
| MCFGPKKVKPAEAETAGAIMAFFL [SLC29A1] | 2.42 ± 0.45 | 2.13 ± 0.21 |
| LPLRVSFCPLSLWRWQLYAAQSTK [CLPTM1] | 2.31 ± 0.29 | 2.24 ± 0.7 |
| LRRRLEELQQELSLKDQERVAEVS [LRRC45] | 4.07 ± 0.42 | 3.89 ± 0.32 |
| KQLRRQMWWRGCKIKAIMALVAAI [VAMP4] | 1.91 ± 0.44 | 1.92 ± 0.23 |
| MEHALREKAKAFWAMRRSYEAIAK [TRIM35] | 2.46 ± 0.12 | 2.59 ± 0.45 |
| SFWNSSHPRGWNDHVHILDTETFT [KLHDC2] | 2.54 ± 0.17 | 2.39 ± 0.3 |
| LKLLNHPNVIEYYENFLEDKALMI [NEK8] | 2.39 ± 0.4 | 2.34 ± 0.23 |
| MNHFTVNLNREEKIIREIDFYRED [TRIM55] | 3.46 ± 0.4 | 3.61 ± 0.33 |
| DFCEPSFVTGNCLEISPDCSQYDR [PCMTD2] | 4.38 ± 0.32 | 4.4 ± 0.22 |
| YDPKTNQWSSDVAPTSTCRTSVGV [KLHL20] | 2.86 ± 0.44 | 3.04 ± 0.19 |
| RNLGKVVHYAKVQLRFQHSQDVSD [PLEKHN1] | 2.49 ± 0.44 | 2.6 ± 0.33 |
| ALSCHEQEMVVSSLVIGALLASLT [SLC2A12] | 3 ± 0.64 | 3.09 ± 0.29 |
| RSRGASQKKQKLEQKAAGSASAKR [FATE1] | 5.07 ± 0.27 | 5.06 ± 0.31 |
| SQGLAREQHAGTSEGLHLAGTAGH [FBF1] | 4.76 ± 0.16 | 4.84 ± 0.36 |
| LQRLRENAAHLGDKRRDLAHLAAE [TRIM39] | 4.13 ± 0.31 | 3.82 ± 0.28 |
| PVPEQSALCQGLYFHINQTLREAH [FAM104A] | 2.46 ± 0.21 | 2.77 ± 0.28 |
| EKIQQDADSVITVGRGEVVTVRVP [ACBD3] | 4.55 ± 0.16 | 4.63 ± 0.14 |
| LFYILTFVGAIFNGLTLLILGVIG [RTN2] | 2.7 ± 0.85 | 3.01 ± 0.67 |

| Sequence | protein stability index (treatment: DMSO) | protein stability index (treatment: MLN4924 1 uM, 8 h) |
| --- | --- | --- |
| SGERWLERYEIDSLIGKGSFGQVV [DYRK1B] | 2.97 ± 0.2 | 3.1 ± 0.25 |
| AVIYLKKTPEEAYRALLSGSNPPY [CDC14A] | 2.21 ± 0.44 | 2.15 ± 0.46 |
| PKRCLKAREHFGTVKTHLTSLKTK [TSN] | 3.72 ± 0.32 | 3.88 ± 0.34 |
| LSLCICGTAITSQYLAERYKVNTP [SLC35F2] | 2.83 ± 0.51 | 2.63 ± 0.42 |
| TIEELQQKILCAKAENARLVVNID [KRT34] | 3.37 ± 0.31 | 3.41 ± 0.48 |
| PPLPGKALKRQLPFRGDEGIFEES [SNX12] | 4.59 ± 0.21 | 4.74 ± 0.22 |
| ISPETMVALLTGKFSNIVDKFVIV [CDC25B] | 2.29 ± 0.51 | 2.38 ± 0.73 |
| DLLPVWLLEDMRASEAFHWDERGR [ANKRD9] | 2.52 ± 0.5 | 2.87 ± 0.45 |
| AQTPLHVAAETGHTSTARLLLHRG [RIPK4] | 3.89 ± 0.12 | 3.91 ± 0.38 |
| ALQRLDLRNNQISHKGAEELALAL [LRRC45] | 3.22 ± 0.24 | 3.05 ± 0.43 |
| EESRDPTLYANNVQRVMAQALGIP [LPCAT4] | 3.71 ± 0.39 | 3.89 ± 0.33 |
| RGCGGTDIELDAARGDAVCTACGS [BRF1] | 4.9 ± 0.24 | 4.75 ± 0.26 |
| FDHPIPRVFQNRFSTQYRCFSVSM [UFD1] | 2.89 ± 1 | 2.45 ± 0.6 |
| ILAVSFAPLIQPCHSESGKSRLVQ [PCMTD2] | 2.23 ± 0.59 | 1.93 ± 0.25 |
| PGVAYPAFLGPDEAFALPDSLLVV [SPSB4] | 2.76 ± 0.49 | 2.21 ± 0.13 |
| FIPECNDDGTYSQVQCHSYTGYCW [SMOC2] | 2.79 ± 1 | 2.27 ± 0.45 |
| NIEDYFSHHLAVYNSPQFKKTMST [FBXO39] | 2.75 ± 0.28 | 2.71 ± 0.12 |
| EEAPAVTAGLKIFEPPAPGEGNSS [TNFSF13B] | 5.33 ± 0.23 | 5.3 ± 0.14 |
| AMQASKATKITLSAIYKWITDNFC [FOXJ1] | 2.28 ± 0.27 | 2.14 ± 0.23 |
| WLLLLTRGLVGVGEASYSTIAPTL [SPNS1] | 2.67 ± 0.44 | 2.83 ± 0.32 |

From the supplement of paper PMC10567573
